B1: ZYX_HUMAN (protein, UniProt Q15942 2-572, looked up)
Zyxin: AAPRPSPAISVSVSAPAFYAPQKKFGPVVAPKPKVNPFRPGDSEPPPAPGAQRAQMGRVGEIPPPPPEDFPLPPPPLAGDGDDAEGALGGAFPPPPPPIEESFPPAPLEEEIFPSPPPPPEEEGGPEAPIPPPPQPREKVSSIDLEIDSLSSLLDDMTKNDPFKARVSSGYVPPPVATPFSSKSSTKPAAGGTAPLPPWKSPSSSQPLPQVPAPAQSQTQFHVQPQPQPKPQVQLHVQSQTQPVSLANTQPRGPPASSPAPAPKFSPVTPKFTPVASKFSPGAPGGSGSQPNQKLGHPEALSAGTGSPQPPSFTYAQQREKPRVQEKQHPVPPPAQNQNQVRSPGAPGPLTLKEVEELEQLTQQLMQDMEHPQRQNVAVNELCGRCHQPLARAQPAVRALGQLFHIACFTCHQCAQQLQGQQFYSLEGAPYCEGCYTDTLEKCNTCGEPITDRMLRATGKAYHPHCFTCVVCARPLEGTSFIVDQANRPHCVPDYHKQYAPRCSVCSEPIMPEPGRDETVRVVALDKNFHMKCYKCEDCGKPLSIEADDNGCFPLDGHVLCRKCHTARAQT
B2: SYAM_HUMAN (protein, UniProt Q5JTZ9 24-985, looked up)
Alanine--tRNA ligase, …: GLSHRPLSSEPPAAKASAVRAAFLNFFRDRHGHRLVPSASVRPRGDPSLLFVNAGMNQFKPIFLGTVDPRSEMAGFRRVANSQKCVRAGGHHNDLEDVGRDLSHHTFFEMLGNWAFGGEYFKEEACNMAWELLTQVYGIPEERLWISYFDGDPKAGLDPDLETRDIWLSLGVPASRVLSFGPQENFWEMGDTGPCGPCTEIHYDLAGGVGAPQLVELWNLVFMQHNREADGSLQPLPQRHVDTGMGLERLVAVLQGKHSTYDTDLFSPLLNAIQQGCRAPPYLGRVGVADEGRTDTAYRVVADHIRTLSVCISDGIFPGMSGPPLVLRRILRRAVRFSMEILKAPPGFLGSLVPVVVETLGDAYPELQRNSAQIANLVSEDEAAFLASLERGRRIIDRTLRTLGPSDMFPAEVAWSLSLCGDLGLPLDMVELMLEEKGVQLDSAGLERLAQEEAQHRARQAEPVQKQGLWLDVHALGELQRQGVPPTDDSPKYNYSLRPSGSYEFGTCEAQVLQLYTEDGTAVASVGKGQRCGLLLDRTNFYAEQGGQASDRGYLVRAGQEDVLFPVARAQVCGGFILHEAVAPECLRLGDQVQLHVDEAWRLGCMAKHTATHLLNWALRQTLGPGTEQQGSHLNPEQLRLDVTTQTPLTPEQLRAVENTVQEAVGQDEAVYMEEVPLALTAQVPGLRSLDEVYPDPVRVVSVGVPVAHALDPASQAALQTSVELCCGTHLLRTGAVGDLVIIGDRQLSKGTTRLLAVTGEQAQQARELGQSLAQEVKAATERLSLGSRDVAEALRLSKDIGRLIEAVETAVMPQWQRRELLATVKMLQRRANTAIRKLQMGQAAKKTQELLERHSKGPLIVDTVSAESLSVLVKVVRQLCEQAPSTSVLLLSPQPMGKVLCACQVAQGAMPTFTAEAWALAVCSHMGGKAWGSRVVAQGTGSTTDLEAALSIAQTYALSQL
B3: RBM14_HUMAN (protein, UniProt Q96PK6 1-669, looked up)
RNA-binding protein 14: MKIFVGNVDGADTTPEELAALFAPYGTVMSCAVMKQFAFVHMRENAGALRAIEALHGHELRPGRALVVEMSRPRPLNTWKIFVGNVSAACTSQELRSLFERRGRVIECDVVKDYAFVHMEKEADAKAAIAQLNGKEVKGKRINVELSTKGQKKGPGLAVQSGDKTKKPGAGDTAFPGTGGFSATFDYQQAFGNSTGGFDGQARQPTPPFFGRDRSPLRRSPPRASYVAPLTAQPATYRAQPSVSLGAAYRAQPSASLGVGYRTQPMTAQAASYRAQPSVSLGAPYRGQLASPSSQSAAASSLGPYGGAQPSASALSSYGGQAAAASSLNSYGAQGSSLASYGNQPSSYGAQAASSYGVRAAASSYNTQGAASSLGSYGAQAASYGAQSAASSLAYGAQAASYNAQPSASYNAQSAPYAAQQAASYSSQPAAYVAQPATAAAYASQPAAYAAQATTPMAGSYGAQPVVQTQLNSYGAQASMGLSGSYGAQSAAAATGSYGAAAAYGAQPSATLAAPYRTQSSASLAASYAAQQHPQAAASYRGQPGNAYDGAGQPSAAYLSMSQGAVANANSTPPPYERTRLSPPRASYDDPYKKAVAMSKRYGSDRRLAELSDYRRLSESQLSFRRSPTKSSLDYRRLPDAHSDYARYSGSYNDYLRAAQMHSGYQRRM
B4: XRN2_HUMAN (protein, UniProt Q9H0D6 1-950, looked up)
5'-3' exoribonuclease 2: MGVPAFFRWLSRKYPSIIVNCVEEKPKECNGVKIPVDASKPNPNDVEFDNLYLDMNGIIHPCTHPEDKPAPKNEDEMMVAIFEYIDRLFSIVRPRRLLYMAIDGVAPRAKMNQQRSRRFRASKEGMEAAVEKQRVREEILAKGGFLPPEEIKERFDSNCITPGTEFMDNLAKCLRYYIADRLNNDPGWKNLTVILSDASAPGEGEHKIMDYIRRQRAQPNHDPNTHHCLCGADADLIMLGLATHEPNFTIIREEFKPNKPKPCGLCNQFGHEVKDCEGLPREKKGKHDELADSLPCAEGEFIFLRLNVLREYLERELTMASLPFTFDVERSIDDWVFMCFFVGNDFLPHLPSLEIRENAIDRLVNIYKNVVHKTGGYLTESGYVNLQRVQMIMLAVGEVEDSIFKKRKDDEDSFRRRQKEKRKRMKRDQPAFTPSGILTPHALGSRNSPGSQVASNPRQAAYEMRMQNNSSPSISPNTSFTSDGSPSPLGGIKRKAEDSDSEPEPEDNVRLWEAGWKQRYYKNKFDVDAADEKFRRKVVQSYVEGLCWVLRYYYQGCASWKWYYPFHYAPFASDFEGIADMPSDFEKGTKPFKPLEQLMGVFPAASGNFLPPSWRKLMSDPDSSIIDFYPEDFAIDLNGKKYAWQGVALLPFVDERRLRAALEEVYPDLTPEETRRNSLGGDVLFVGKHHPLHDFILELYQTGSTEPVEVPPELCHGIQGKFSLDEEAILPDQIVCSPVPMLRDLTQNTVVSINFKDPQFAEDYIFKAVMLPGARKPAAVLKPSDWEKSSNGRQWKPQLGFNRDRRPVHLDQAAFRTLGHVMPRGSGTGIYSNAAPPPVTYQGNLYRPLLRGQAQIPKLMSNMRPQDSWRGPPPLFQQQRFDRGVGAEPLLPWNRMLQTQNAAFQPNQYQMLAGPGGYPPRRDDRGGRQGYPREGRKYPLPPPSGRYNWN
B5: SRC8_HUMAN (protein, UniProt Q14247 1-550, looked up)
Src substrate cortactin: MWKASAGHAVSIAQDDAGADDWETDPDFVNDVSEKEQRWGAKTVQGSGHQEHINIHKLRENVFQEHQTLKEKELETGPKASHGYGGKFGVEQDRMDKSAVGHEYQSKLSKHCSQVDSVRGFGGKFGVQMDRVDQSAVGFEYQGKTEKHASQKDYSSGFGGKYGVQADRVDKSAVGFDYQGKTEKHESQRDYSKGFGGKYGIDKDKVDKSAVGFEYQGKTEKHESQKDYVKGFGGKFGVQTDRQDKCALGWDHQEKLQLHESQKDYKTGFGGKFGVQSERQDSAAVGFDYKEKLAKHESQQDYSKGFGGKYGVQKDRMDKNASTFEDVTQVSSAYQKTVPVEAVTSKTSNIRANFENLAKEKEQEDRRKAEAERAQRMAKERQEQEEARRKLEEQARAKTQTPPVSPAPQPTEERLPSSPVYEDAASFKAELSYRGPVSGTEPEPVYSMEAADYREASSQQGLAYATEAVYESAEAPGHYPAEDSTYDEYENDLGITAVALYDYQAAGDDEISFDPDDIITNIEMIDDGWWRGVCKGRYGLFPANYVELRQ
B6: SC23A_HUMAN (protein, UniProt Q15436 2-765, looked up)
Protein transport protein …: TTYLEFIQQNEERDGVRFSWNVWPSSRLEATRMVVPVAALFTPLKERPDLPPIQYEPVLCSRTTCRAVLNPLCQVDYRAKLWACNFCYQRNQFPPSYAGISELNQPAELLPQFSSIEYVVLRGPQMPLIFLYVVDTCMEDEDLQALKESMQMSLSLLPPTALVGLITFGRMVQVHELGCEGISKSYVFRGTKDLSAKQLQEMLGLSKVPLTQATRGPQVQQPPPSNRFLQPVQKIDMNLTDLLGELQRDPWPVPQGKRPLRSSGVALSIAVGLLECTFPNTGARIMMFIGGPATQGPGMVVGDELKTPIRSWHDIDKDNAKYVKKGTKHFEALANRAATTGHVIDIYACALDQTGLLEMKCCPNLTGGYMVMGDSFNTSLFKQTFQRVFTKDMHGQFKMGFGGTLEIKTSREIKISGAIGPCVSLNSKGPCVSENEIGTGGTCQWKICGLSPTTTLAIYFEVVNQHNAPIPQGGRGAIQFVTQYQHSSGQRRIRVTTIARNWADAQTQIQNIAASFDQEAAAILMARLAIYRAETEEGPDVLRWLDRQLIRLCQKFGEYHKDDPSSFRFSETFSLYPQFMFHLRRSSFLQVFNNSPDESSYYRHHFMRQDLTQSLIMIQPILYAYSFSGPPEPVLLDSSSILADRILLMDTFFQILIYHGETIAQWRKSGYQDMPEYENFRHLLQAPVDDAQEILHSRFPMPRYIDTEHGGSQARFLLSKVNPSQTHNNMYAWGQESGAPILTDDVSLQVFMDHLKKLAVSSAA
B7: MCM3_HUMAN (protein, UniProt P25205 2-808, looked up)
DNA replication licensing …: AGTVVLDDVELREAQRDYLDFLDDEEDQGIYQSKVRELISDNQYRLIVNVNDLRRKNEKRANRLLNNAFEELVAFQRALKDFVASIDATYAKQYEEFYVGLEGSFGSKHVSPRTLTSCFLSCVVCVEGIVTKCSLVRPKVVRSVHYCPATKKTIERRYSDLTTLVAFPSSSVYPTKDEENNPLETEYGLSVYKDHQTITIQEMPEKAPAGQLPRSVDVILDDDLVDKAKPGDRVQVVGTYRCLPGKKGGYTSGTFRTVLIACNVKQMSKDAQPSFSAEDIAKIKKFSKTRSKDIFDQLAKSLAPSIHGHDYVKKAILCLLLGGVERDLENGSHIRGDINILLIGDPSVAKSQLLRYVLCTAPRAIPTTGRGSSGVGLTAAVTTDQETGERRLEAGAMVLADRGVVCIDEFDKMSDMDRTAIHEVMEQGRVTIAKAGIHARLNARCSVLAAANPVYGRYDQYKTPMENIGLQDSLLSRFDLLFIMLDQMDPEQDREISDHVLRMHRYRAPGEQDGDAMPLGSAVDILATDDPNFSQEDQQDTQIYEKHDNLLHGTKKKKEKMVSAAFMKKYIHVAKIIKPVLTQESATYIAEEYSRLRSQDSMSSDTARTSPVTARTLETLIRLATAHAKARMSKTVDLQDAEEAVELVQYAYFKKVLEKEKKRKKRSEDESETEDEEEKSQEDQEQKRKRRKTRQPDAKDGDSYDPYDFSDTEEEMPQVHTPKTADSQETKESQKVELSESRLKAFKVALLDVFREAHAQSIGMNRLTESINRDSEEPFSSVEIQAALSKMQDDNQVMVSEGIIFLI
B8: FIP1_HUMAN (protein, UniProt Q6UN15 1-594, looked up)
Pre-mRNA 3'-end-processing …: MSAGEVERLVSELSGGTGGDEEEEWLYGGPWDVHVHSDLAKDLDENEVERPEEENASANPPSGIEDETAENGVPKPKVTETEDDSDSDSDDDEDDVHVTIGDIKTGAPQYGSYGTAPVNLNIKTGGRVYGTTGTKVKGVDLDAPGSINGVPLLEVDLDSFEDKPWRKPGADLSDYFNYGFNEDTWKAYCEKQKRIRMGLEVIPVTSTTNKITAEDCTMEVTPGAEIQDGRFNLFKVQQGRTGNSEKETALPSTKAEFTSPPSLFKTGLPPSRNSTSSQSQTSTASRKANSSVGKWQDRYGRAESPDLRRLPGAIDVIGQTITISRVEGRRRANENSNIQVLSERSATEVDNNFSKPPPFFPPGAPPTHLPPPPFLPPPPTVSTAPPLIPPPGFPPPPGAPPPSLIPTIESGHSSGYDSRSARAFPYGNVAFPHLPGSAPSWPSLVDTSKQWDYYARREKDRDRERDRDRERDRDRDRERERTRERERERDHSPTPSVFNSDEERYRYREYAERGYERHRASREKEERHRERRHREKEETRHKSSRSNSRRRHESEEGDSHRRHKHKKSKRSKEGKEAGSEPAPEQESTEATPAE

System: KDM4A-I71AzF
Assay: CASI: photo-crosslinking with HEK293T cell extracts, StrepTactin enrichment and LC-MS/MS proteomics;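 further: lysates from HEK293T cells pretreated with a KDM4 inhibitor to raise proteome methylation, affinity-purified after ±UV, gel-resolved, trypsin-digested, with exclusive unique peptides per protein averaged per condition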
Format: binding, human
Conditions: sheet "Final results but with 0.01"

Molecule	Fold change (+UV/-UV)
B1	0
B2	0.625
B3	2
B4	2.5
B5	0.8
B6	0.5
B7	1.2
B8	2

Reference: publication PMC10540216, “Activity Guided Azide-methyllysine Photo-trapping for Substrate Profiling of Lysine Demethylases” (Journal of the American Chemical Society, 2023)
